Source: the supplement of paper PMC10724198
± gives the standard deviation of the averaged measurements.

Test system: Saccharomyces cerevisiae
Experiment: protein stability index of tFT-peptide fusion (C-terminal peptide) (PSI (0-1 scale)); higher = more stable (slower turnover)
Settings: genetic background: wild type; temperature: 30 C
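Further: PSI is a weighted mean of sequencing reads over stability bins, variants kept only with over 10 reads, mCherry proximal and sfGFP distal, peptide attached via GGGS linker.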

Sequence | protein stability index
KIKKKKEQTKKK | 0.752 ± 0.15
KIKKKKKKNKEH | 0.591 ± 0.028
KIKRKKSIHDKQ | 0.693 ± 0.012
KIKRTNKNIKKS | 0.672 ± 0.017
KIKSEFNMIGKN | 0.693 ± 0.091
KILNIKCLLANK | 0.686 ± 0.017
KILRKVIKQKGN | 0.599 ± 0.041
KIRIWWIEEKTI | 0.6067 ± 0.0023
KIRRECIGSSVY | 0.687 ± 0.019
KISNRNKRTNRK | 0.689 ± 0.077
KITKRTKKTKEN | 0.67086 ± 0.00056
KKDQEKEKKGKE | 0.613 ± 0.015
KKEAKRDKKSGR | 0.727 ± 0.12
KKEEKKRRKPQR | 0.626 ± 0.039
KKEKKKTKKWQE | 0.694 ± 0.1
KKEPEKEQQNKE | 0.746 ± 0.097
KKEQKRKKKEKQ | 0.758 ± 0.098
KKERINNDLPGS | 0.619 ± 0.026
KKERSTKTNRNV | 0.635 ± 0.0072
KKGRKKEGKREK | 0.621 ± 0.06
KKIKKRQSKENK | 0.704 ± 0.015
KKKENRQKREIQ | 0.647 ± 0.029
KKKETEKPRKQK | 0.677 ± 0.054
KKKETKKENKKK | 0.723 ± 0.034
KKKHKNNIQKKK | 0.6129 ± 0.0017
KKKIKKKSIKKT | 0.7074 ± 0.0044

Sequence | protein stability index
KKKKEEKWSSAR | 0.709 ± 0.061
KKKKGNKKRREK | 0.731 ± 0.0083
KKKKHKNRKEKQ | 0.692 ± 0.019
KKKKIIKKKNIK | 0.77 ± 0.069
KKKKKEEKKNDK | 0.721 ± 0.0073
KKKKKIHIKNKK | 0.707 ± 0.052
KKKKKKKKQNQK | 0.7 ± 0.03
KKKKKKKNKKQE | 0.7456 ± 0.005
KKKKKKKQKSKK | 0.704 ± 0.057
KKKKKKLKKKKI | 0.724 ± 0.056
KKKKKKNKKEKK | 0.689 ± 0.12
KKKKKLKERRKI | 0.668 ± 0.019
KKKKKNKKKKKK | 0.705 ± 0.046
KKKKKQEREKRN | 0.623 ± 0.037
KKKKKQKEKKQK | 0.72 ± 0.0083
KKKKKRITKIKN | 0.7089 ± 0.0018
KKKKKRTKKNNH | 0.767 ± 0.11
KKKKNKKEEHVE | 0.715 ± 0.02
KKKKNKKIKINE | 0.6874 ± 0.0033
KKKKNKKNKRKN | 0.613 ± 0.034
KKKKNKNKRTRK | 0.662 ± 0.038
KKKMINQKKKKD | 0.649 ± 0.016
KKKNKEKSKKKK | 0.761 ± 0.05
KKKNKKQNKAKK | 0.6396 ± 0.0023
KKKRKKNRKTNK | 0.67 ± 0.02
KKKSNNNNQKPH | 0.737 ± 0.016

Sequence | protein stability index
KKMNVKNNKSKI | 0.777 ± 0.17
KKNLITRQNPLS | 0.69004 ± 0.0003
KKNQKEKATSRK | 0.769 ± 0.043
KKNQNSKNRKEN | 0.627 ± 0.036
KKNRSRKRRNKK | 0.713 ± 0.032
KKNYNTKLTQHP | 0.683 ± 0.04
KKRKKNIKQNTK | 0.617 ± 0.043
KKRQKKKKLIPQ | 0.697 ± 0.024
KKTDKSNKVKRI | 0.669 ± 0.013
KKWRKKTEHDKE | 0.729 ± 0.028
KKYEKNGKSSQK | 0.685 ± 0.1
KKYETNENNQKK | 0.686 ± 0.027
KKYKKIGYRRIP | 0.773 ± 0.12
KKYNRNRIKKAR | 0.7 ± 0.08
KKYYCRKLNTKK | 0.715 ± 0.017
KLKACRIHEENR | 0.676 ± 0.019
KLKNKRKKIRNR | 0.71 ± 0.045
KLNKKKKITIRI | 0.589 ± 0.025
KLRSTLVSAQGV | 0.652 ± 0.015
KLTKAQPRMPLL | 0.702 ± 0.027
KLVVFPYIRPSP | 0.709 ± 0.021
KMCISLGTVLAV | 0.5504 ± 0.0055
KMSRKIKIRERG | 0.658 ± 0.016
KNCYPTKKIAIK | 0.638 ± 0.016
KNDLHGLFLMSE | 0.648 ± 0.041
KNIEKKKQKDTQ | 0.645 ± 0.058

Sequence | protein stability index
KNITVVKKAFDA | 0.654 ± 0.024
KNKFSTWDNEVN | 0.718 ± 0.041
KNKKKKINKNKK | 0.713 ± 0.067
KNKKNKKKKTMK | 0.685 ± 0.041
KNKKRDKYRKKT | 0.607 ± 0.011
KNKRTQKKKRKK | 0.7299 ± 0.0016
KNRKIIIITLPK | 0.63 ± 0.036
KPKKKRTKQRKR | 0.705 ± 0.08
KPKRIRCDRSPH | 0.694 ± 0.019
KPPCFSPTHHCP | 0.713 ± 0.0018
KQANTKINSQKT | 0.712 ± 0.036
KQGFVRARSYHP | 0.699 ± 0.013
KQKKTKKTKKQN | 0.647 ± 0.044
KQKQNKKKNNKT | 0.843 ± 0.16
KQLGMTCRYISK | 0.692 ± 0.022
KQMRIEYKTRNI | 0.604 ± 0.015
KQRQTKTIRGPR | 0.672 ± 0.059
KQWCFLKWGVNV | 0.558 ± 0.058
KREKENIAKSSV | 0.718 ± 0.078
KREMCHRYTRRS | 0.67 ± 0.097
KRFQDRPRPGAH | 0.687 ± 0.044
KRGYLRTNPLSY | 0.7056 ± 0.0061
KRHCDRVLKMWH | 0.641 ± 0.11
KRKEEKKPLINE | 0.734 ± 0.072
KRKEKAKRTKHV | 0.641 ± 0.035
KRKKKKKRRTKK | 0.6442 ± 0.0045

Sequence | protein stability index
KRKKKRRKETLY | 0.641 ± 0.037
KRKKQGNKKQEE | 0.6893 ± 0.0017
KRKRQKNIRNER | 0.704 ± 0.12
KRKTKIEQDQRQ | 0.6704 ± 0.0056
KRREEKKRKRVE | 0.648 ± 0.094
KRRQGRGAKGGE | 0.629 ± 0.045
KRRSHRQHSRRR | 0.559 ± 0.032
KRSARRAGRATP | 0.761 ± 0.14
KRVTYKRIRSKI | 0.799 ± 0.029
KSAGLKPNWSTT | 0.696 ± 0.065
KSDSDNCQALTY | 0.679 ± 0.067
KSLRLFSVLSFV | 0.627 ± 0.016
KSVAKLGHGGSP | 0.677 ± 0.064
KSVSVDGYNKED | 0.646 ± 0.01
KSYRVGKMAAQR | 0.683 ± 0.012
KTAKSEEPILYR | 0.753 ± 0.0083
KTEKTKIKKKRM | 0.684 ± 0.0075
KTFPPVTLDFSS | 0.609 ± 0.013
KTINKEQKKKEM | 0.7 ± 0.036
KTKERARTISRV | 0.721 ± 0.024
KTKKPIILDTSN | 0.6406 ± 0.0047
KTKKYIQKNKKR | 0.773 ± 0.012
KTNNQVDTSVKD | 0.645 ± 0.054
KTNNYPDNNPPG | 0.611 ± 0.016
KTRHMQGNRVDS | 0.603 ± 0.045
KTRPVCKVSCKL | 0.77 ± 0.092

Sequence | protein stability index
KTRRHDQKMEKI | 0.659 ± 0.026
KTSQYKPREKID | 0.736 ± 0.04
KTTETVLRKRTK | 0.737 ± 0.049
KTTKEKESQEKN | 0.723 ± 0.029
KTYKNKTQQNAS | 0.746 ± 0.045
KVGWGMRGVRGG | 0.66 ± 0.015
KVHVILTGKYEI | 0.7012 ± 0.0025
KVREGEARKEST | 0.6826 ± 0.0017
KVSKHIKTNDSI | 0.65 ± 0.02
KWCQSNNIVKRT | 0.7 ± 0.011
KYFCSLAFFLFA | 0.502 ± 0.0073
KYINSASLIVYY | 0.693 ± 0.06
LAAGPSERTART | 0.685 ± 0.052
LACMWICPHIQA | 0.606 ± 0.023
LADLLRCSYSLS | 0.677 ± 0.046
LAGRARLVMCPR | 0.639 ± 0.0068
LAGVSTPLPPPP | 0.696 ± 0.029
LAHAGSRPPTPG | 0.6754 ± 0.0016
LALHPPPRVPPT | 0.701 ± 0.036
LANVGLDVSRIS | 0.696 ± 0.012
LAPPLILLPFVD | 0.699 ± 0.033
LAPPPAAPRFCL | 0.652 ± 0.008
LAPPYPSSASSH | 0.688 ± 0.022
LAQLPPSLRFPP | 0.72 ± 0.1
LARLPPPSLSRV | 0.713 ± 0.055
LASTMTIMLPGC | 0.703 ± 0.15

Sequence | protein stability index
LASVLRESRIST | 0.671 ± 0.0078
LATDVGHRLLGI | 0.707 ± 0.042
LAVWSVVGGGVV | 0.637 ± 0.008
LAWLGLHERTLF | 0.685 ± 0.0077
LAYIFTPVRTTG | 0.799 ± 0.26
LCCLSSLAMLFF | 0.7 ± 0.12
LCLIGQPQTRVS | 0.695 ± 0.17
LCLTLPSDSSAP | 0.841 ± 0.073
LCRRGGRSACGS | 0.7019 ± 0.0067
LCSGRGGRVCGG | 0.669 ± 0.038
LCVRFFGVKWAF | 0.594 ± 0.0095
LCWQALSLGVMC | 0.526 ± 0.023
LDAFYVNVGLFG | 0.732 ± 0.045
LDGLLVCSNWPA | 0.805 ± 0.07
LDHFGASYCPRG | 0.706 ± 0.027
LDPGPLVRTPRL | 0.692 ± 0.076
LDPHPFRGHACC | 0.779 ± 0.3
LDPPCPTARLPH | 0.61 ± 0.052
LDSMSRPGATVS | 0.668 ± 0.051
LDVAFLMSRFSS | 0.731 ± 0.024
LDVGYVLGLERS | 0.681 ± 0.033
LEGGWRVGGGRL | 0.683 ± 0.015
LEGYFMLPRSAW | 0.736 ± 0.065
LENIHVLETIFT | 0.6022 ± 0.0054
LERCKSLDSIVL | 0.701 ± 0.071
LESLWEAIRTLF | 0.5136 ± 0.005

Sequence | protein stability index
LFAKVVSGYDLG | 0.711 ± 0.024
LFALRLLSREGI | 0.604 ± 0.046
LFDGPFPHLFPT | 0.718 ± 0.091
LFELVRTCDRCV | 0.7 ± 0.03
LFFLLPSSPIGF | 0.705 ± 0.011
LFFLPSSSLSPL | 0.731 ± 0.022
LFFRFGRWFLGF | 0.671 ± 0.027
LFGHMENNLLKS | 0.722 ± 0.046
LFGQTVLLSAGT | 0.713 ± 0.018
LFHFLSPVALPS | 0.6649 ± 0.0041
LFITTSLFRPFA | 0.53 ± 0.015
LFLPDPHSLTFH | 0.744 ± 0.044
LFLSLFLFPSLS | 0.57 ± 0.03
LFLYPFCVGGFL | 0.714 ± 0.016
LFPLHLPSPPPG | 0.7207 ± 0.0018
LFPLISPLQSER | 0.737 ± 0.026
LFPVTSLFPPLP | 0.706 ± 0.012
LFSSSLISPLFA | 0.582 ± 0.025
LFTLFPPFFYSR | 0.681 ± 0.0079
LFVGCRDPLCGV | 0.723 ± 0.00029
